Measurements published in patent publication US9320760B2, “Compositions and methods of use of compounds to increase cancer patient survival time” (BioNumerik Pharmaceuticals, Inc., priority 2008, dated 2016).

Substrate: O=S(=O)(O)CCSSCCS(=O)(=O)O
Assay: purified protein, by the assay type
Details: pH 7.0; 25.0 °C

B1: Thioredoxin Reductase + Thioredoxin (Bos taurus) (protein)
chain: MVKQIESKYAFQEALNSAGEKLVVVDFSATWCGPCKMIKPFFHSLSEKYSNVVFLEVDVDDCQDVAAECEVKCMPTFQFFKKGQKVGEFSGANKEKLEATINELI
Km: 72 µM
